# From ChEMBL document CHEMBL1250451, “Mechanistic insights into a Ca2+-dependent family of alpha-mannosidases in a human gut symbiont” (Nat Chem Biol, 2010)
# Legend:
# Format in all cases: protein assay
# [1] = substrate: O=[N+]([O-])c1ccc(O[C@H]2O[C@H](CO)[C@@H](O)[C@H](O)[C@@H]2O)cc1; test: (§1) Ratio of Kcat to Km for Bacteroides thetaiotaomicron GH92 alpha-mannosidase 2199 E537Q mutant assessed as as mannose release after 16 hrs by HPLC relative to wild type enzyme
# [2] = substrate: OC[C@H]1O[C@H](O[C@H]2[C@@H](O)[C@H](O)[C@@H](CO)O[C@@H]2O)[C@@H](O)[C@@H](O)[C@@H]1O; test: as §1
# [3] = substrate: O=[N+]([O-])c1ccc(O[C@H]2O[C@H](CO)[C@@H](O)[C@H](O)[C@@H]2O)cc1; test: (§2) Activity of Bacteroides thetaiotaomicron GH92 alpha-mannosidase 2199 E537Q mutant assessed as as mannose release after 16 hrs by HPLC relative to wild type enzyme
# [4] = substrate: OC[C@H]1O[C@H](O[C@H]2[C@@H](O)[C@H](O)[C@@H](CO)O[C@@H]2O)[C@@H](O)[C@@H](O)[C@@H]1O; test: as §2
# [5] = substrate: O=[N+]([O-])c1ccc(O[C@H]2O[C@H](CO)[C@@H](O)[C@H](O)[C@@H]2O)cc1; test: (§3) Activity of Bacteroides thetaiotaomicron GH92 alpha-mannosidase 3990 N601A mutant assessed as as mannose release after 16 hrs by HPLC relative to wild type enzyme
# [6] = substrate: OC[C@H]1O[C@H](O[C@H]2[C@@H](O)[C@H](O)[C@@H](CO)O[C@@H]2O)[C@@H](O)[C@@H](O)[C@@H]1O; test: as §3
# [7] = substrate: O=[N+]([O-])c1ccc(O[C@H]2O[C@H](CO)[C@@H](O)[C@H](O)[C@@H]2O)cc1; test: (§4) Ratio of Kcat to Km for Bacteroides thetaiotaomicron GH92 alpha-mannosidase 3990 N601A mutant assessed as as mannose release after 16 hrs by HPLC relative to wild type enzyme
# [8] = substrate: OC[C@H]1O[C@H](O[C@H]2[C@@H](O)[C@H](O)[C@@H](CO)O[C@@H]2O)[C@@H](O)[C@@H](O)[C@@H]1O; test: as §4
# [9] = substrate: O=[N+]([O-])c1ccc(O[C@H]2O[C@H](CO)[C@@H](O)[C@H](O)[C@@H]2O)c([N+](=O)[O-])c1; test: as §4
# [10] = substrate: O=[N+]([O-])c1ccc(O[C@H]2O[C@H](CO)[C@@H](O)[C@H](O)[C@@H]2O)cc1; test: (§5) Activity of Bacteroides thetaiotaomicron GH92 alpha-mannosidase 3990 S86A mutant assessed as mannose release after 16 hrs by HPLC relative to wild type enzyme
# [11] = substrate: OC[C@H]1O[C@H](O[C@H]2[C@@H](O)[C@H](O)[C@@H](CO)O[C@@H]2O)[C@@H](O)[C@@H](O)[C@@H]1O; test: as §5
# [12] = substrate: O=[N+]([O-])c1ccc(O[C@H]2O[C@H](CO)[C@@H](O)[C@H](O)[C@@H]2O)cc1; test: (§6) Ratio of Kcat to Km for Bacteroides thetaiotaomicron GH92 alpha-mannosidase 3990 S86A mutant assessed as mannose release after 16 hrs by HPLC relative to wild type enzyme
# [13] = substrate: OC[C@H]1O[C@H](O[C@H]2[C@@H](O)[C@H](O)[C@@H](CO)O[C@@H]2O)[C@@H](O)[C@@H](O)[C@@H]1O; test: as §6
# [14] = substrate: O=[N+]([O-])c1ccc(O[C@H]2O[C@H](CO)[C@@H](O)[C@H](O)[C@@H]2O)c([N+](=O)[O-])c1; test: as §6
protein,measurement,setting,value
"Alpha-1,2-mannosidase (BT_2199) (Bacteroides thetaiotaomicron), Q8A5N9 E537Q (protein) MVTRLFFLSICFPFLLTSCQQSKKTVEFVDYVNPLMGTESTFAFSHGNTYPAVAVPWGMNFWSPQTGENGSGWMYTYTDSLMRGFRQTHQPSPWINDYGTFSIMPLAGELKMSHKERLVPFSHQQEKATPYNYSVTFNNGLQTSLSATSRGAVFEVSFPEKEDQYVVVDAYNGGSSITIEPEKRLVKGATRYNNGGVPDNFANYFMMEFSHPVIEYGTYNGDTLLHHQTDVAADYTCAYLKFDVPAGEKLTIRTASSFISPEQAAINFNREVADADVQLISGKAREQWNNYLGRVEAEGGTDEQLRTFYSCLYRTLLFPREFYEFDSQGNPVYYSPYDGNVHDGYMYTDNGFWDTFRAVHPLFTLLYPEVSERVTQSIINAYNESGFMPEWASPGHRGCMIGNNSVSLLVDAWMKGIQTVDAEKALEAMIHQTQARHAEIASVGRDGFEYYDKLGYVPYPEVPEATAKTLEYAYADWCIARFAESLGKQDIADQYYQKAPNYRNLYYPEHGFMWTKDAKGNWRDRFDATEWGGPFTQGSSWHWTWSVFHDPEGLSELMGGHEPMIARLDSMFVAPNTYNYGTYGFVIHEIAEMVALNMGQYAHGNQPVQHAIYLYDYIGQPWKTQYHLRNVMDKLYNSGSKGYCGDEDNGQTSAWYVFSAMGFYPVCPGMPEYAIGSPLFKKVTLHLPEGKNFVVSAADNAADRPYIRKALLNGQEFTRNYLTHDELKQGGELNLSMDSVPNQQRGTQPADFPYSYSK",kcat/Km,[1],19.5 M⁻¹ s⁻¹
same,kcat/Km,[2],0.767 M⁻¹ s⁻¹
same,Km,[3],3.1 mM
same,kcat,[3],0.06 s⁻¹
same,Km,[4],0.571 mM
same,kcat,[4],0.000433 s⁻¹
"Alpha-1,2-mannosidase (BT_3990) (Bacteroides thetaiotaomicron), Q8A0N1 N601A (protein) MKRLLLIACILNCTLLSQAKDWTQYVNPLMGSQSTFELSTGNTYPAIARPWGMNFWTPQTGKMGDGWQYTYTANKIRGFKQTHQPSPWINDYGQFSIMPIVGQPVFDEEKRASWFAHKGEVATPYYYKVYLAEHDIVTEMTPTERAVLFRFTFPENDHSYVVVDAFDKGSYIKIIPEENKIIGYTTRNSGGVPENFKNYFIIEFDKPFTYKATVENGNLQENVAEQTTDHAGAIIGFKTRKGEQVNARIASSFISFEQAAANMNELGKDNIEQLAQKGKDAWNQVLGKIEVEGGNLDQYRTFYSCLYRSLLFPRKFYELDANGQPIHYSPYNGQVLPGYMFTDTGFWDTFRCLFPLLNLMYPSVNKEMQEGLINTYLESGFFPEWASPGHRGCMVGNNSASILVDAYMKGVKVDDIKTLYEGLIHGTENVHPEVSSTGRLGYEYYNKLGYVPYDVKINENAARTLEYAYDDWCIYRLAKELKRPKKEISLFAKRAMNYKNLFDKESKLMRGRNEDGTFQSPFSPLKWGDAFTEGNSWHYTWSVFHDPQGLIDLMGGKEMFVTMMDSVFAVPPIFDDSYYGQVIHEIREMTVMNMGNYAHGAQPIQHMIYLYDYAGQPWKAQYWLRQVMDRMYTPGPDGYCGDEDNGQTSAWYVFSALGFYPVCPGTDEYVMGTPLFKKATLHFENGNSLVIDAPNNSTENFYIDSMSFNGADHTKNYLRHEDLFKGGTIKVDMSNRPNLNRGTKEEDMPYSFSKE",Km,[5],9.7 mM
same,kcat,[5],0.00055 s⁻¹
same,Km,[6],3.3 mM
same,kcat,[6],0.85 s⁻¹
same,kcat/Km,[7],0.05 M⁻¹ s⁻¹
same,kcat/Km,[8],250 M⁻¹ s⁻¹
same,kcat/Km,[9],6.17 M⁻¹ s⁻¹
"Alpha-1,2-mannosidase (BT_3990) (Bacteroides thetaiotaomicron), Q8A0N1 S86A (protein) MKRLLLIACILNCTLLSQAKDWTQYVNPLMGSQSTFELSTGNTYPAIARPWGMNFWTPQTGKMGDGWQYTYTANKIRGFKQTHQPAPWINDYGQFSIMPIVGQPVFDEEKRASWFAHKGEVATPYYYKVYLAEHDIVTEMTPTERAVLFRFTFPENDHSYVVVDAFDKGSYIKIIPEENKIIGYTTRNSGGVPENFKNYFIIEFDKPFTYKATVENGNLQENVAEQTTDHAGAIIGFKTRKGEQVNARIASSFISFEQAAANMNELGKDNIEQLAQKGKDAWNQVLGKIEVEGGNLDQYRTFYSCLYRSLLFPRKFYELDANGQPIHYSPYNGQVLPGYMFTDTGFWDTFRCLFPLLNLMYPSVNKEMQEGLINTYLESGFFPEWASPGHRGCMVGNNSASILVDAYMKGVKVDDIKTLYEGLIHGTENVHPEVSSTGRLGYEYYNKLGYVPYDVKINENAARTLEYAYDDWCIYRLAKELKRPKKEISLFAKRAMNYKNLFDKESKLMRGRNEDGTFQSPFSPLKWGDAFTEGNSWHYTWSVFHDPQGLIDLMGGKEMFVTMMDSVFAVPPIFDDSYYGQVIHEIREMTVMNMGNYAHGNQPIQHMIYLYDYAGQPWKAQYWLRQVMDRMYTPGPDGYCGDEDNGQTSAWYVFSALGFYPVCPGTDEYVMGTPLFKKATLHFENGNSLVIDAPNNSTENFYIDSMSFNGADHTKNYLRHEDLFKGGTIKVDMSNRPNLNRGTKEEDMPYSFSKE",Km,[10],8.5 mM
same,kcat,[10],0.00667 s⁻¹
same,Km,[11],3.2 mM
same,kcat,[11],2 s⁻¹
same,kcat/Km,[12],0.783 M⁻¹ s⁻¹
same,kcat/Km,[13],6330 M⁻¹ s⁻¹
same,kcat/Km,[14],51.7 M⁻¹ s⁻¹
